Assay results as given in patent publication US20110145941A1 (LAY LINE GENOMICS S P A, published 2011).
Residue numbers refer to the chain shown, from its start. Blank lines part the entries; values can stand above or below the binder they belong to.

Assays:
[1] = target: T1, human TrkA receptor on the cell surface (human, UniProt P04629 33-796); assay: flow cytometry on TF-1 cells, 4 µg/ml; set-up: Geo Mean Fluorescence: reference not given here
T1 construct: whole, on cells; PC12-hTrkA: high density; also called hTrkA; huTrkA
T1 sequence (P04629 33-796): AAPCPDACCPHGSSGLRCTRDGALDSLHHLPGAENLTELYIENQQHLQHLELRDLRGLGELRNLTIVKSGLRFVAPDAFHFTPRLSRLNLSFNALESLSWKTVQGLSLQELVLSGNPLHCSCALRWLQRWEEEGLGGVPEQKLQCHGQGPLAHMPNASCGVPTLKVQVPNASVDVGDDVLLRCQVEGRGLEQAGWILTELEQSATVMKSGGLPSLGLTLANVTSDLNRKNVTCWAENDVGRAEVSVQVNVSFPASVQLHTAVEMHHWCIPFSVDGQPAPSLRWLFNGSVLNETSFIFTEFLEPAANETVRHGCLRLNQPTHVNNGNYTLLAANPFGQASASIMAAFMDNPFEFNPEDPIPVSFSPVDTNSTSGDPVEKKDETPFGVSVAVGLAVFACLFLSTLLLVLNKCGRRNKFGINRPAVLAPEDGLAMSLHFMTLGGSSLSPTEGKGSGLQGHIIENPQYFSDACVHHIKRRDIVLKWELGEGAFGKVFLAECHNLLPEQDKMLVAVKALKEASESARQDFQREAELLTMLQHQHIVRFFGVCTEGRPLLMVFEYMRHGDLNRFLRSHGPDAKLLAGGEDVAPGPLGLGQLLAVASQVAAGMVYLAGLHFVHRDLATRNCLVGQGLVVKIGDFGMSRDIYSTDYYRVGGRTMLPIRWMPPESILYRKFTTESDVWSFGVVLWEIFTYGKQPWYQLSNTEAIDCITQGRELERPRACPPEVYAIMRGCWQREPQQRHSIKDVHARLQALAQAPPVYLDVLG

[2] = target: T2, TrkA-IgG (UniProt P04629 33-423, limits assumed); assay: SPR (BIACORE 2000), TrkA-IgG immobilised on CM-5 chip, 'separated 1:1' fit
T2 construct: also called specific antigen TrkA-IgG; not shown: IgG part of the fusion
T2 sequence (P04629 33-423 limits assumed): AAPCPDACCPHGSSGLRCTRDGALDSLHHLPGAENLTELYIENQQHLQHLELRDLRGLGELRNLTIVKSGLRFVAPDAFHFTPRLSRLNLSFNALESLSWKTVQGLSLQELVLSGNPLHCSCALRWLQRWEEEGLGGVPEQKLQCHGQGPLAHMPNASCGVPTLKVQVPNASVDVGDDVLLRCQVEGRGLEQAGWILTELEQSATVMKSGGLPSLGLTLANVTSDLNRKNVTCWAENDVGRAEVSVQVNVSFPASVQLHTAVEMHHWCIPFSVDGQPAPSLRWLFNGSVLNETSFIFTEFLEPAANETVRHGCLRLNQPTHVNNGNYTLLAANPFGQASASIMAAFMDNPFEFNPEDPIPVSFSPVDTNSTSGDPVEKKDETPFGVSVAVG
Description: Surface plasmon resonance analysis was used to measure the association and dissociation rate constants for binding kinetics of the different antibodies (murine, chimeric, 5 humanised variants) towards TrkA-IgG using BIACORE 2000 (Biacore AB, Uppsala, Sweden). TrkA-IgG was immobilised on a CM-5 sensor chip according to manufacturer's conditions, in a way to achieve an immobilization density of 1100 RU. Each antibody sample was analyzed in antibody concentration ranges of 20-0.63 μg/ml. Calculations from the sensograms were performed by using the BIA evaluation version 3 (1999) software.
Analysis of the individual sets of sensograms was performed with the BIA evaluation version 3 (1999) software. Among the different models tested to fit the kinetics data, the best fitting was obtained with the “separated 1:1” algorithm. In this model, only a defined range of the early association and dissociation curves was used for the calculation.

[3] = target: T1, human TrkA receptor on the cell surface; assay: cell-based or functional assay

Fold Increase [1]: 1.9 fold
Geo Mean Fluorescence [1]: 6.5
B1: BXhVH2VL7 (antibody, human IgG1, V domains shown)
VH: EVQLLESGGGLVQPGGSLRLSCAASGFTFSTYTMSWVRQTPGKRLEWVAYISKGGGSTYYPDTVKGRFTISRDNSKNTLYLQMNSLRAEDTAVYYCAKGAMYGNDFFYPMDYWGQGTTVTVSS
VL: QIVLTQSPATLSLSPGERATLSCSASSSVSYMHWYQQKPGQSPRLLIYTTSNLASGIPSRFSGSGSGTFYTLTISSLEPEDAADYYCHQWSSYPWTFGGGTKLEIK
notes: Human IgG1 constant regions (IgG1 expression vectors); COS-7 supernatant; also called hVH2/hVL7

Kd [2]: 2.48 nM
koff [2]: 0.00386 s⁻¹
kon [2]: 1.62e+06 M⁻¹ s⁻¹
Fold Increase [1]: 2.6 fold
Geo Mean Fluorescence [1]: 8.9
B2: HuMNACWOv (antibody, V domains shown)
VH: B1 VH with V37A, T40A, R44G, T91S, K98R, T118L
VL: DIVLTQSPSSLSASVGDRVTITCSASSSVSYMHWYQQKPGQAPKLLIYTTSNLASGVPSRFSGSGSGTDYTLTISSLQPEDVATYYCHQWSSYPWTFGGGTKVEIK
notes: Variant of HuMNACWO whose heavy chain CDR3 is replaced with that of muMNACEP; also called hVHWOv/hVLWO; HuVHWOv/HuVLWO

Fold Increase [1]: 1.8 fold
Geo Mean Fluorescence [1]: 6.1
B3: BXhVH1VL3 (antibody, human IgG1, V domains shown)
VH: B1 VH with Q3K, R44G
VL: B1 VL with A82F, D84V
notes: Human IgG1 constant regions (IgG1 expression vectors); COS-7 supernatant; also called hVH1/hVL3

Fold Increase [1]: 2.5 fold
Geo Mean Fluorescence [1]: 8.6
B4: BXhVH5VL7 (antibody, human IgG1, V domains shown)
VH: B1 VH with Q3K, K98R
VL: B1 VL
notes: Human IgG1 constant regions (IgG1 expression vectors); COS-7 supernatant; also called hVH5/hVL7

Fold Increase [1]: 2.6 fold
Geo Mean Fluorescence [1]: 9.2
B5: BXhVH2VL1 (antibody, human IgG1, V domains shown)
VH: B1 VH
VL: B1 VL with Q1E, S42A, S59A, F69D, Y70F, A82F, D84V, G99Q
notes: Human IgG1 constant regions (IgG1 expression vectors); COS-7 supernatant; also called hVH2/hVL1

Fold Increase [1]: 1.9 fold
Geo Mean Fluorescence [1]: 6.5
B6: BXhVH2VL8 (antibody, human IgG1, V domains shown)
VH: B1 VH
VL: B1 VL with R18E, P39S, Q41T
notes: Human IgG1 constant regions (IgG1 expression vectors); COS-7 supernatant; also called hVH2/hVL8

Fold Increase [1]: 2.6 fold
Geo Mean Fluorescence [1]: 9.1
B7: BXhVH5VL6 (antibody, human IgG1, V domains shown)
VH: B1 VH with Q3K, K98R
VL: B1 VL with Q1E, R18E
notes: Human IgG1 constant regions (IgG1 expression vectors); COS-7 supernatant; also called hVH5/hVL6

Fold Increase [1]: 1.8 fold
Geo Mean Fluorescence [1]: 6.4
B8: BXhVH2VL2 (antibody, human IgG1, V domains shown)
VH: B1 VH
VL: B1 VL with Q1E, F69D, Y70F, G99Q
notes: Human IgG1 constant regions (IgG1 expression vectors); COS-7 supernatant; also called hVH2/hVL2

Fold Increase [1]: 1.8 fold
Geo Mean Fluorescence [1]: 6.1
B9: BXhVH2VL4 (antibody, human IgG1, V domains shown)
VH: B1 VH
VL: B1 VL with F69D, Y70F
notes: Human IgG1 constant regions (IgG1 expression vectors); COS-7 supernatant; also called hVH2/hVL4

Fold Increase [1]: 1.5 fold
Geo Mean Fluorescence [1]: 5.2
B10: BXhVH1VL8 (antibody, human IgG1, V domains shown)
VH: B1 VH with Q3K, R44G
VL: B1 VL with R18E, P39S, Q41T
notes: Human IgG1 constant regions (IgG1 expression vectors); COS-7 supernatant; also called hVH1/hVL8

Fold Increase [1]: 1.4 fold
Geo Mean Fluorescence [1]: 4.9
B11: BXhVH1VL6 (antibody, human IgG1, V domains shown)
VH: B1 VH with Q3K, R44G
VL: B1 VL with Q1E, R18E
notes: Human IgG1 constant regions (IgG1 expression vectors); COS-7 supernatant; also called hVH1/hVL6

Fold Increase [1]: 2 fold
Geo Mean Fluorescence [1]: 6.9
B12: BXhVH3VL5 (antibody, human IgG1, V domains shown)
VH: B1 VH with T40A, K98R
VL: B1 VL with F69D, G99Q
notes: Human IgG1 constant regions (IgG1 expression vectors); COS-7 supernatant; also called hVH3/hVL5

Fold Increase [1]: 1.9 fold
Geo Mean Fluorescence [1]: 6.5
B13: BXhVH3VL8 (antibody, human IgG1, V domains shown)
VH: B1 VH with T40A, K98R
VL: B1 VL with R18E, P39S, Q41T
notes: Human IgG1 constant regions (IgG1 expression vectors); COS-7 supernatant; also called hVH3/hVL8

Fold Increase [1]: 2.4 fold
Geo Mean Fluorescence [1]: 8.3
B14: BXhVH5VL5 (antibody, human IgG1, V domains shown)
VH: B1 VH with Q3K, K98R
VL: B1 VL with F69D, G99Q
notes: Human IgG1 constant regions (IgG1 expression vectors); COS-7 supernatant; also called hVH5/hVL5

Fold Increase [1]: 1.8 fold
Geo Mean Fluorescence [1]: 6.4
B15: BXhVH2VL6 (antibody, human IgG1, V domains shown)
VH: B1 VH
VL: B1 VL with Q1E, R18E
notes: Human IgG1 constant regions (IgG1 expression vectors); COS-7 supernatant; also called hVH2/hVL6

Fold Increase [1]: 2 fold
Geo Mean Fluorescence [1]: 7.1
B16: BXhVH3VL2 (antibody, human IgG1, V domains shown)
VH: B1 VH with T40A, K98R
VL: B1 VL with Q1E, F69D, Y70F, G99Q
notes: Human IgG1 constant regions (IgG1 expression vectors); COS-7 supernatant; also called hVH3/hVL2

Fold Increase [1]: 1.7 fold
Geo Mean Fluorescence [1]: 5.7
B17: BXhVH1VL1 (antibody, human IgG1, V domains shown)
VH: B1 VH with Q3K, R44G
VL: B1 VL with Q1E, S42A, S59A, F69D, Y70F, A82F, D84V, G99Q
notes: Human IgG1 constant regions (IgG1 expression vectors); COS-7 supernatant; also called hVH1/hVL1

Fold Increase [1]: 1.3 fold
Geo Mean Fluorescence [1]: 4.6
B18: BXhVH1VL2 (antibody, human IgG1, V domains shown)
VH: B1 VH with Q3K, R44G
VL: B1 VL with Q1E, F69D, Y70F, G99Q
notes: Human IgG1 constant regions (IgG1 expression vectors); COS-7 supernatant; also called hVH1/hVL2

Fold Increase [1]: 3.1 fold
Geo Mean Fluorescence [1]: 10.8
B19: BXhVH2VL3 (antibody, human IgG1, V domains shown)
VH: B1 VH
VL: B1 VL with A82F, D84V
notes: Human IgG1 constant regions (IgG1 expression vectors); COS-7 supernatant; also called hVH2/hVL3

Fold Increase [1]: 1.5 fold
Geo Mean Fluorescence [1]: 5.1
B20: BXhVH1VL4 (antibody, human IgG1, V domains shown)
VH: B1 VH with Q3K, R44G
VL: B1 VL with F69D, Y70F
notes: Human IgG1 constant regions (IgG1 expression vectors); COS-7 supernatant; also called hVH1/hVL4

Fold Increase [1]: 1.5 fold
Geo Mean Fluorescence [1]: 5.1
B21: BXhVH1VL7 (antibody, human IgG1, V domains shown)
VH: B1 VH with Q3K, R44G
VL: B1 VL
notes: Human IgG1 constant regions (IgG1 expression vectors); COS-7 supernatant; also called hVH1/hVL7

Fold Increase [1]: 1.3 fold
Geo Mean Fluorescence [1]: 4.5
B22: BXhVH1VL5 (antibody, human IgG1, V domains shown)
VH: B1 VH with Q3K, R44G
VL: B1 VL with F69D, G99Q
notes: Human IgG1 constant regions (IgG1 expression vectors); COS-7 supernatant; also called hVH1/hVL5

Kd [2]: 1.45 nM
koff [2]: 0.000442 s⁻¹
kon [2]: 325000 M⁻¹ s⁻¹
Fold Increase [1]: 3.6 fold
Geo Mean Fluorescence [1]: 12.6
Proliferation assay on TF1 cells IC50 (µg/ml), EXP-1 [3]: 0.41 µg/mL
Proliferation assay on TF1 cells IC50 (µg/ml), EXP-2 [3]: 2.38 µg/mL
B23: BXhVH3VL3 (antibody, human IgG1, V domains shown)
VH: B1 VH with T40A, K98R
VL: B1 VL with A82F, D84V
notes: Human IgG1 constant regions (IgG1 expression vectors); also called hVH3/hVL3

Fold Increase [1]: 2.5 fold
Geo Mean Fluorescence [1]: 8.6
B24: BXhVH3VL1 (antibody, human IgG1, V domains shown)
VH: B1 VH with T40A, K98R
VL: B1 VL with Q1E, S42A, S59A, F69D, Y70F, A82F, D84V, G99Q
notes: Human IgG1 constant regions (IgG1 expression vectors); COS-7 supernatant; also called hVH3/hVL1

Fold Increase [1]: 1.8 fold
Geo Mean Fluorescence [1]: 6.4
B25: BXhVH2VL5 (antibody, human IgG1, V domains shown)
VH: B1 VH
VL: B1 VL with F69D, G99Q
notes: Human IgG1 constant regions (IgG1 expression vectors); COS-7 supernatant; also called hVH2/hVL5

Fold Increase [1]: 1.8 fold
Geo Mean Fluorescence [1]: 6.4
B26: BXhVH3VL6 (antibody, human IgG1, V domains shown)
VH: B1 VH with T40A, K98R
VL: B1 VL with Q1E, R18E
notes: Human IgG1 constant regions (IgG1 expression vectors); COS-7 supernatant; also called hVH3/hVL6

Fold Increase [1]: 2.5 fold
Geo Mean Fluorescence [1]: 8.6
B27: BXhVH5VL2 (antibody, human IgG1, V domains shown)
VH: B1 VH with Q3K, K98R
VL: B1 VL with Q1E, F69D, Y70F, G99Q
notes: Human IgG1 constant regions (IgG1 expression vectors); COS-7 supernatant; also called hVH5/hVL2

Fold Increase [1]: 2 fold
Geo Mean Fluorescence [1]: 7.1
B28: BXhVH3VL4 (antibody, human IgG1, V domains shown)
VH: B1 VH with T40A, K98R
VL: B1 VL with F69D, Y70F
notes: Human IgG1 constant regions (IgG1 expression vectors); COS-7 supernatant; also called hVH3/hVL4

Fold Increase [1]: 2 fold
Geo Mean Fluorescence [1]: 7.1
B29: BXhVH3VL7 (antibody, human IgG1, V domains shown)
VH: B1 VH with T40A, K98R
VL: B1 VL
notes: Human IgG1 constant regions (IgG1 expression vectors); COS-7 supernatant; also called hVH3/hVL7

Fold Increase [1]: 2.6 fold
Geo Mean Fluorescence [1]: 9.1
B30: BXhVH5VL4 (antibody, human IgG1, V domains shown)
VH: B1 VH with Q3K, K98R
VL: B1 VL with F69D, Y70F
notes: Human IgG1 constant regions (IgG1 expression vectors); COS-7 supernatant; also called hVH5/hVL4

Kd [2]: 0.25 nM
koff [2]: 0.000167 s⁻¹
kon [2]: 850000 M⁻¹ s⁻¹
Proliferation assay on TF1 cells IC50 (µg/ml), Mean [3]: 0.54 µg/mL
B31: muMNACEP (antibody, V domains shown)
VH: EVKLMESGGGLVQPGGSLKLSCAASGFTFSTYTMSWARQTPEKRLEWVAYISKGGGSTYYPDTVKGRFTISRDNAKNTLYLQMSSLKSEDTALYYCARGAMYGNDFFYPMDYWGQQTSVTVSS
VL: DIVLSQSPAIMSASLGEEITLTCSASSSVSYMHWYQQKSGTSPKLLITTTSNLASGVPSRFSGSGSGTFYSLTISSVEAEDAADYYCHQWSSYPWTFGGGTKLEIK
notes: Murine monoclonal antibody as disclosed in EP1181318; also called murine antibody MNAC13; MNAC13

Kd [2]: 0.151 nM
Fold Increase [1]: 3.2 fold
Geo Mean Fluorescence [1]: 11
Proliferation assay on TF1 cells IC50 (µg/ml), EXP-1 [3]: 0.06 µg/mL
Proliferation assay on TF1 cells IC50 (µg/ml), EXP-2 [3]: 0.58 µg/mL
B32: ChimMNAC13 (antibody, V domains shown)
VH: B31 VH
VL: B31 VL
notes: Corresponds to muMNACEP but has human constant regions instead of mouse constant regions; also called chimNINAC13; mVHEP/mVLEP
